{"source": "patent US20240165282A1", "about": "“CONFORMATIONAL CONSTRAINED SOMATOSTATIN RECEPTOR 3 PEPTIDE LIGANDS AND THEIR CONJUGATES AND USES THEREOF” (STARGET PHARMA LTD., priority 2021, published 2024)", "biological_target": "human cloned somatostatin receptor 2 (human) (UniProt P30874)", "sequence (P30874 whole entry)": "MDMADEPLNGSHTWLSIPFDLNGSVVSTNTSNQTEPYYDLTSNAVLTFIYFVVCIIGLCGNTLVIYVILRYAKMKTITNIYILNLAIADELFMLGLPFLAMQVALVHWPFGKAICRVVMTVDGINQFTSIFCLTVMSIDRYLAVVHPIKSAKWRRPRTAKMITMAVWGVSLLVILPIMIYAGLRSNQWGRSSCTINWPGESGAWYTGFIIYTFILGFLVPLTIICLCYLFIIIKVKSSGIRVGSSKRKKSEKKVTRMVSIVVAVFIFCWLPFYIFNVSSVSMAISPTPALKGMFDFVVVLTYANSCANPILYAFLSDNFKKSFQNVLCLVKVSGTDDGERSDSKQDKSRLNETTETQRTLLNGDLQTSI", "assay": "cell-based or functional assay", "data": [{"substance": "SRIF-28 (from UniProt P61278 89-116) (ligand)", "values": [{"measurement": "Cellular Internalization EC50 (β-Arrestin Luminescence Assay)", "result": 3, "unit": "nM"}, {"measurement": "Efficacy - maximal response", "result": 47500, "unit": "RLU"}]}]}
